According to paper PMC5330260 (Analytical biochemistry, 2017):

Target: Gαi1 (human, UniProt P63096 1-354)
Test: split reporter

Sequence of Gαi1 (P63096 whole entry): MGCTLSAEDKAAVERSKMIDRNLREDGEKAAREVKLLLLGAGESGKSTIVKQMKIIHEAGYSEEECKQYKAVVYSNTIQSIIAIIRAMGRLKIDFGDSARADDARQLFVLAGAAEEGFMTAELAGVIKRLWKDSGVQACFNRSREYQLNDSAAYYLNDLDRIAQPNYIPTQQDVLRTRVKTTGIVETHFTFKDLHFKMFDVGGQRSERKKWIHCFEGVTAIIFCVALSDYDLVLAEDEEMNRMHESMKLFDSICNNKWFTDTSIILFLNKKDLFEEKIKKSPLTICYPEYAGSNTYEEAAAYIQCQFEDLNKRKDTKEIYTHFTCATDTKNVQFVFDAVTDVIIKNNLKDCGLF

B1: RGS17 RH domain (domain or fragment, human, UniProt Q9UGC6 73-201, looked up)
chain: PTAEEVLSWSQNFDKMMKAPAGRNLFREFLRTEYSEENLLFWLACEDLKKEQNKKVIEEKARMIYEDYISILSPKEVSLDSRVREVINRNLLDPNPHMYEDAQLQIYTLMHRDSFPRFLNSQIYKSFVE
- net signal increase in response to AlF4, fold of that of RGS6: 2.8 fold
- net signal increase in response to AlF4, fold of that of RGS7: 6.3 fold
